Experimental findings from patent US12171803B2, “Methods of CD40 and toll like receptor immune activation” (MEMGEN, INC., priority 2017, dated 2024) are described below.

This assay has as its system B16.F10 tumors. The assay can be described thus: Tumor growth of B16.F10 tumors subcutaneously implanted in mice. Format: in vivo. As to conditions: ISF35 combination therapy versus agonist CD40 antibody combination therapy; B16.F10 tumors subcutaneously implanted in C54/BL6 mice. The text has this: Tumor growth curves of B16.F10 tumors subcutaneously implanted in C54/BL6 mice. Individual animal tumor growth curves are shown.

B1: ISF35: chimeric CD154 polypeptide; domain IV of human CD154 linked to domains I, II and III of human CD154; SEQ ID NO 6 (protein)
chain: MIETYNQTSPRSAATGLPISMKIFMYLLTVFLITQMIGSALFAVYLHRRLDKIEDERNLHEDFVFMKTIQRCNTGERSLSLLNCEEIKSQFEGFVKDIMLNKEETKKDEDPQIAAHVVSEANSNAASVLQWAKKGYYTMKSNLVTLENGKQLTVKRQGLYYIYAQVTFCSNREASSQAPFIVGLWLKPSSGSERILLKAANTHSSSQLCEQQSIHLGGVFELQPGASVFVNVTDPSQVSHGTGFTSFGLLKL
modifications: ISF35 (MEM40)
B1: the “Tumor growth curves (activity of combination therapy)” value is reported as “Superior activity”.
